Target: human CD205 (human, UniProt O60449 28-1722)
Assay: cell-based or functional assay

Sequence of human CD205 (O60449 28-1722 limits assumed): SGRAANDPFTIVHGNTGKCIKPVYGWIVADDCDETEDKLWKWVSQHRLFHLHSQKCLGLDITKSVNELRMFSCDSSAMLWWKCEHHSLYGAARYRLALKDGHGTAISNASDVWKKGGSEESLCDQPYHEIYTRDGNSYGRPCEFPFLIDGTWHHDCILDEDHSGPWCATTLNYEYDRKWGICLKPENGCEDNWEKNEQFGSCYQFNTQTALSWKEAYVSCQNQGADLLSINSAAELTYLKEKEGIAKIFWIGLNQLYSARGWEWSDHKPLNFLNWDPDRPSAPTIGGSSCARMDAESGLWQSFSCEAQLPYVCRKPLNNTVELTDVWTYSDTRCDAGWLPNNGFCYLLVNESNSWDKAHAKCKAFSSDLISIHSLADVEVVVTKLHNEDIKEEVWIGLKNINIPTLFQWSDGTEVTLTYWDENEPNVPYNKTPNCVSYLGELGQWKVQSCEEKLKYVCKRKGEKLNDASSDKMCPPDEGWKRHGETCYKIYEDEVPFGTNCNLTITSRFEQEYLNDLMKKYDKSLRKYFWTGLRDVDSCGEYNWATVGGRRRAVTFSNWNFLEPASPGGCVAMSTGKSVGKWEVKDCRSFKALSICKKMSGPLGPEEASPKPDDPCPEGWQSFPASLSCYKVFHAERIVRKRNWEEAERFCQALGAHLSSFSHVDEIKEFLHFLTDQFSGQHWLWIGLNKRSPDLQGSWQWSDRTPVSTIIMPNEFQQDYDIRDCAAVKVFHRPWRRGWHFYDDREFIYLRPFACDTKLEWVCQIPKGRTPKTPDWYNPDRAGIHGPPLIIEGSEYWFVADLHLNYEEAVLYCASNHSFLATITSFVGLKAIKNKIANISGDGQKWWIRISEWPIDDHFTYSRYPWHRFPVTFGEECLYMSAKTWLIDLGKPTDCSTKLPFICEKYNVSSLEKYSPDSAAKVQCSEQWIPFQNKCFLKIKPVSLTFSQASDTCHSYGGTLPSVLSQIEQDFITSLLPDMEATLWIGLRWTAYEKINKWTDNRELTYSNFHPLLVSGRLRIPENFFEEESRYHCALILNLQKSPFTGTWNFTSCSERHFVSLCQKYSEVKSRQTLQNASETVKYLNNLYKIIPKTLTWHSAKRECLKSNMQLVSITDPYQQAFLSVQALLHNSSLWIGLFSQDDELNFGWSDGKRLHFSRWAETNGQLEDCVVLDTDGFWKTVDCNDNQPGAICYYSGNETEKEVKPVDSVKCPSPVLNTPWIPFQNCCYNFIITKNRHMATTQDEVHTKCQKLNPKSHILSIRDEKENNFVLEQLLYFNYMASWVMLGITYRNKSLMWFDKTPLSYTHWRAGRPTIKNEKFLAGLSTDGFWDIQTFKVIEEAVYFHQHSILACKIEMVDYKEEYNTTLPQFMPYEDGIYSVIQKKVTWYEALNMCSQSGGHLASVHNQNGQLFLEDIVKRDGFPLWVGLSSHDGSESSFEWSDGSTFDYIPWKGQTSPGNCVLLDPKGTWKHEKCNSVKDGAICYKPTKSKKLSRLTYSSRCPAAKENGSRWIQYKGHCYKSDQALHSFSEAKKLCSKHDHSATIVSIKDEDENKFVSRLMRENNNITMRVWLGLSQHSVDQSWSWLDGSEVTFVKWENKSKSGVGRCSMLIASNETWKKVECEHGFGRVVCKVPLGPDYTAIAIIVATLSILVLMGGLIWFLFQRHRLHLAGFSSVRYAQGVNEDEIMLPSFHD

Binder | EC50 (pM) of % Specific Death, Cell-Titer Glo, Raji cells, 96 hours | EC50 (pM) of % Specific Death, Cell-Titer Glo, THP1 cells, 96 hours
DM4-conjugated anti-LY75 monoclonal antibody 8A3 (antibody, V domains shown, antibody conjugated to the maytansinoid DM4; attachment residues not stated) VH: EVQLVESGGGLIQPGGSLRLSCAASGFTVSSNYMSWVRQAPGKGLEWVSVIYSGGSTYYTDSVKGRFTISRDNSKNTLYLQMNSLRAEDTAVYYCARDKSGWNGFDYWGQGTLVTVSS VL: DVQMTQSPSSLSASVGDRVTITCRASQSVSTYLHWYQQKPGKAPKLLIYAASSLQGGLPSRFSGSGSGTDFTLTISSLQPEDFATYYCQQSSSTPLTFGGGTKVEITR | 1010 pM | 98.8 pM
DM4-conjugated anti-LY75 monoclonal antibody 16A5 (CD205_A1) (antibody, V domains shown, antibody conjugated to the maytansinoid DM4; attachment residues not stated) VH: EVQLVESGGGLVKPGGSLRLSCAASGFTYSNAWMSWVRQAPGKGLEWVGRIKSKTDGGTTDYAAPVQGRFTISRDDSKNTLYLQMNSLKTEDTAVYYCTIFGVVSFDYWGQGTLVTVSS VL: DVQMTQSPSSLSASVGDRVTITCRASQSISDYLSWYQQRPGKAPNLLIYAASNLKTGVPSRFSGSGSGTDFTLTISTLQPEDFATYYCQQSYRSPWTFGQGTKVEIKR | 728 pM | 37.5 pM

— US20240254238A1 (OXFORD BIOTHERAPEUTICS, published 2024)
